Consider four variants from IntAct's records for PubMed 20739938.

Sequences and labels used below:
B1: Regulator of chromosome condensation (Homo sapiens), P18754 (parent)
chain: MSPKRIAKRRSPPADAIPKSKKVKVSHRSHSTEPGLVLTLGQGDVGQLGLGENVMERKKPALVSIPEDVVQAEAGGMHTVCLSKSGQVYSFGCNDEGALGRDTSVEGSEMVPGKVELQEKVVQVSAGDSHTAALTDDGRVFLWGSFRDNNGVIGLLEPMKKSMVPVQVQLDVPVVKVASGNDHLVMLTADGDLYTLGCGEQGQLGRVPELFANRGGRQGLERLLVPKCVMLKSRGSRGHVRFQDAFCGAYFTFAISHEGHVYGFGLSNYHQLGTPGTESCFIPQNLTSFKNSTKSWVGFSGGQHHTVCMDSEGKAYSLGRAEYGRLGLGEGAEEKSIPTLISRLPAVSSVACGASVGYAVTKDGRVFAWGMGTNYQLGTGQDEDAWSPVEMMGKQLENRVVLSVSSGGQHTVLLVKDKEQS

The variants in this test derive from B1. The conditions noted are these: with h2b11, P02281.
Consider MSPKRIAKRRSPPADAIPKSKKVKVSHRSHSTEPGLVLTLGQGDVGQLGLGENVMERKKPALVSIPEDVVQAEAGGMHTVCLSKSGQVYSFGCNDEGALGRDTSVEGSEMVPGKVELQEKVVQVSAGDSHTAALTDDGRVFLWGSFRDNNGVIGLLEPMKKSMVPVQVQLDVPVVKVASGNDHLVMLTADGDLYTLGCGEQGQLGRVPELFANRGGRQGLERLLVPKCVMLKSRGSAGHVRFQDAFCGAYFTFAISHEGHVYGFGLSNYHQLGTPGTESCFIPQNLTSFKNSTKSWVGFSGGQHHTVCMDSEGKAYSLGRAEYGRLGLGEGAEEKSIPTLISRLPAVSSVACGASVGYAVTKDGRVFAWGMGTNYQLGTGQDEDAWSPVEMMGKQLENRVVLSVSSGGQHTVLLVKDKEQS [R237A], for which the “effect of a mutation on the interaction” value is “disrupting interaction”. Consider MSPKRIAKRRSPPADAIPKSKKVKVSHRSHSTEPGLVLTLGQGDVGQLGLGENVMERKKPALVSIPEDVVQAEAGGMHTVCLSKSGQVYSFGCNDEGALGRDTSVEGSEMVPGKVELQEKVVQVSAGDSHTAALTDDGRVFLWGSFRDNNGVIGLLEPMKKSMVPVQVQLDVPVVKVASGNDHLVMLTADGDLYTLGCGEQGQLGRVPELFANRGGRQGLERLLVPKCVMLASAGSAGHVRFQDAFCGAYFTFAISHEGHVYGFGLSNYHQLGTPGTESCFIPQNLTSFKNSTKSWVGFSGGQHHTVCMDSEGKAYSLGRAEYGRLGLGEGAEEKSIPTLISRLPAVSSVACGASVGYAVTKDGRVFAWGMGTNYQLGTGQDEDAWSPVEMMGKQLENRVVLSVSSGGQHTVLLVKDKEQS [K232A;R234A;R237A], for which the “effect of a mutation on the interaction” value is recorded as “disrupting interaction”. With MSPKRIAKRRSPPADAIPKSKKVKVSHRSHSTEPGLVLTLGQGDVGQLGLGENVMERKKPALVSIPEDVVQAEAGGMHTVCLSKSGQVYSFGCNDEGALGRDTSVEGSEMVPGKVELQEKVVQVSAGDSHTAALTDDGRVFLWGSFRDNNGVIGLLEPMKKSMVPVQVQLDVPVVKVASGNDHLVMLTADGDLYTLGCGEQGQLGRVPELFANRGGRQGLERLLVPKCVMLKSAGSRGHVRFQDAFCGAYFTFAISHEGHVYGFGLSNYHQLGTPGTESCFIPQNLTSFKNSTKSWVGFSGGQHHTVCMDSEGKAYSLGRAEYGRLGLGEGAEEKSIPTLISRLPAVSSVACGASVGYAVTKDGRVFAWGMGTNYQLGTGQDEDAWSPVEMMGKQLENRVVLSVSSGGQHTVLLVKDKEQS [R234A] the entry was “disrupting interaction”; with MSPKRIAKRRSPPADAIPKSKKVKVSHRSHSTEPGLVLTLGQGDVGQLGLGENVMERKKPALVSIPEDVVQAEAGGMHTVCLSKSGQVYSFGCNDEGALGRDTSVEGSEMVPGKVELQEKVVQVSAGDSHTAALTDDGRVFLWGSFRDNNGVIGLLEPMKKSMVPVQVQLDVPVVKVASGNDHLVMLTADGDLYTLGCGEQGQLGRVPELFANRGGRQGLERLLVPKCVMLASRGSRGHVRFQDAFCGAYFTFAISHEGHVYGFGLSNYHQLGTPGTESCFIPQNLTSFKNSTKSWVGFSGGQHHTVCMDSEGKAYSLGRAEYGRLGLGEGAEEKSIPTLISRLPAVSSVACGASVGYAVTKDGRVFAWGMGTNYQLGTGQDEDAWSPVEMMGKQLENRVVLSVSSGGQHTVLLVKDKEQS [K232A], “disrupting interaction”.
